{"source": "the RNAGym collection of RNA variant scans (doi:10.1093/molbev/msab373)", "parents": {"B1": {"name": "Azoarcus group I ribozyme (parent)", "chain": "GUGCCUUGCGCCGGGAAACCACGCAAGGGAUGGUGUCAAAUUCGGCGAAACCUAAGCGCCCGCCCGGGCGUAUGGCAACGCCGAGCCAAGCUUCGGCGCCUGCGCCGAUGAAGGUGUAGAGACUAGACGGCACCCACCUAAGGCAAACGCUAUGGUGAAGGCAUAGUCCAGGGAGUGGCGAAAGUCACACAAACCGG"}}}
{"variants_of": "B1", "test": "reverse-splicing fitness (ratio to wild type); higher = more active; in vitro selection; Mg2+ level not given", "how_it_was_run": "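An in vitro group I ribozyme library with randomized positions was T7-transcribed and gel-purified. In triplicate, 10 pmol RNA in EPPS pH 7.5 was reacted with 50 pmoles of a 30-nt RNA substrate for 1 h at 37 °C across several added MgCl2 levels (1–48 mM), then stopped with EDTA. Products were reverse transcribed from a substrate-complementary primer, PCR-amplified and sequenced (HiSeq 4000). Fitness is a variant's read proportion after selection over that before, normalised to wild type.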"}
{"variant": "C82G A111C A120U A145G C150U C169A U176G", "reverse-splicing fitness": 0.00301}
{"variant": "C82G A111C A120U A145G C150U C169G", "reverse-splicing fitness": 0.00657}
{"variant": "C82G A111C A120U A145G C150U C169G U176A", "reverse-splicing fitness": 0.00573}
{"variant": "C82G A111C A120U A145G C150U C169G U176C", "reverse-splicing fitness": 0.00437}
{"variant": "C82G A111C A120U A145G C150U C169G U176G", "reverse-splicing fitness": 0.00259}
{"variant": "C82G A111C A120U A145G C150U C169U", "reverse-splicing fitness": 0.00642}
{"variant": "C82G A111C A120U A145G C150U C169U U176A", "reverse-splicing fitness": 0.00549}
{"variant": "C82G A111C A120U A145G C150U C169U U176C", "reverse-splicing fitness": 0.00492}
{"variant": "C82G A111C A120U A145G C150U C169U U176G", "reverse-splicing fitness": 0.00262}
{"variant": "C82G A111C A120U A145G C150U U176A", "reverse-splicing fitness": 0.0115}
{"variant": "C82G A111C A120U A145G C150U U176C", "reverse-splicing fitness": 0.0162}
{"variant": "C82G A111C A120U A145G C150U U176G", "reverse-splicing fitness": 0.00399}
{"variant": "C82G A111C A120U A145G C169A", "reverse-splicing fitness": 0.00335}
{"variant": "C82G A111C A120U A145G C169A U176A", "reverse-splicing fitness": 0.00424}
{"variant": "C82G A111C A120U A145G C169A U176C", "reverse-splicing fitness": 0.00311}
{"variant": "C82G A111C A120U A145G C169A U176G", "reverse-splicing fitness": 0.00218}
{"variant": "C82G A111C A120U A145G C169G", "reverse-splicing fitness": 0.00473}
{"variant": "C82G A111C A120U A145G C169G U176A", "reverse-splicing fitness": 0.00387}
{"variant": "C82G A111C A120U A145G C169G U176C", "reverse-splicing fitness": 0.00363}
{"variant": "C82G A111C A120U A145G C169G U176G", "reverse-splicing fitness": 0.00194}
{"variant": "C82G A111C A120U A145G C169U", "reverse-splicing fitness": 0.00527}
{"variant": "C82G A111C A120U A145G C169U U176A", "reverse-splicing fitness": 0.00525}
{"variant": "C82G A111C A120U A145G C169U U176C", "reverse-splicing fitness": 0.00468}
{"variant": "C82G A111C A120U A145G C169U U176G", "reverse-splicing fitness": 0.0022}
{"variant": "C82G A111C A120U A145G U176A", "reverse-splicing fitness": 0.0112}
{"variant": "C82G A111C A120U A145G U176C", "reverse-splicing fitness": 0.0203}
{"variant": "C82G A111C A120U A145G U176G", "reverse-splicing fitness": 0.004}
{"variant": "C82G A111C A120U A145U", "reverse-splicing fitness": 0.0481}
{"variant": "C82G A111C A120U A145U C150A", "reverse-splicing fitness": 0.00799}
{"variant": "C82G A111C A120U A145U C150A C169A", "reverse-splicing fitness": 0.00247}
{"variant": "C82G A111C A120U A145U C150A C169A U176A", "reverse-splicing fitness": 0.00336}
{"variant": "C82G A111C A120U A145U C150A C169A U176C", "reverse-splicing fitness": 0.00267}
{"variant": "C82G A111C A120U A145U C150A C169A U176G", "reverse-splicing fitness": 0.00195}
{"variant": "C82G A111C A120U A145U C150A C169G", "reverse-splicing fitness": 0.00295}
{"variant": "C82G A111C A120U A145U C150A C169G U176A", "reverse-splicing fitness": 0.00297}
{"variant": "C82G A111C A120U A145U C150A C169G U176C", "reverse-splicing fitness": 0.00248}
{"variant": "C82G A111C A120U A145U C150A C169G U176G", "reverse-splicing fitness": 0.00223}
{"variant": "C82G A111C A120U A145U C150A C169U", "reverse-splicing fitness": 0.00311}
{"variant": "C82G A111C A120U A145U C150A C169U U176A", "reverse-splicing fitness": 0.00302}
{"variant": "C82G A111C A120U A145U C150A C169U U176C", "reverse-splicing fitness": 0.00353}
{"variant": "C82G A111C A120U A145U C150A C169U U176G", "reverse-splicing fitness": 0.00243}
{"variant": "C82G A111C A120U A145U C150A U176A", "reverse-splicing fitness": 0.00533}
{"variant": "C82G A111C A120U A145U C150A U176C", "reverse-splicing fitness": 0.00583}
{"variant": "C82G A111C A120U A145U C150A U176G", "reverse-splicing fitness": 0.00269}
{"variant": "C82G A111C A120U A145U C150G", "reverse-splicing fitness": 0.00826}
{"variant": "C82G A111C A120U A145U C150G C169A", "reverse-splicing fitness": 0.00457}
{"variant": "C82G A111C A120U A145U C150G C169A U176A", "reverse-splicing fitness": 0.0036}
{"variant": "C82G A111C A120U A145U C150G C169A U176C", "reverse-splicing fitness": 0.00308}
{"variant": "C82G A111C A120U A145U C150G C169A U176G", "reverse-splicing fitness": 0.00276}
{"variant": "C82G A111C A120U A145U C150G C169G", "reverse-splicing fitness": 0.00414}
{"variant": "C82G A111C A120U A145U C150G C169G U176A", "reverse-splicing fitness": 0.00287}
{"variant": "C82G A111C A120U A145U C150G C169G U176C", "reverse-splicing fitness": 0.00317}
{"variant": "C82G A111C A120U A145U C150G C169G U176G", "reverse-splicing fitness": 0.00242}
{"variant": "C82G A111C A120U A145U C150G C169U", "reverse-splicing fitness": 0.00326}
{"variant": "C82G A111C A120U A145U C150G C169U U176A", "reverse-splicing fitness": 0.00309}
{"variant": "C82G A111C A120U A145U C150G C169U U176C", "reverse-splicing fitness": 0.00292}
{"variant": "C82G A111C A120U A145U C150G C169U U176G", "reverse-splicing fitness": 0.00234}
{"variant": "C82G A111C A120U A145U C150G U176A", "reverse-splicing fitness": 0.00411}
{"variant": "C82G A111C A120U A145U C150G U176C", "reverse-splicing fitness": 0.0062}
{"variant": "C82G A111C A120U A145U C150G U176G", "reverse-splicing fitness": 0.00265}
{"variant": "C82G A111C A120U A145U C150U", "reverse-splicing fitness": 0.0307}
{"variant": "C82G A111C A120U A145U C150U C169A", "reverse-splicing fitness": 0.00298}
{"variant": "C82G A111C A120U A145U C150U C169A U176A", "reverse-splicing fitness": 0.00282}
{"variant": "C82G A111C A120U A145U C150U C169A U176C", "reverse-splicing fitness": 0.00293}
{"variant": "C82G A111C A120U A145U C150U C169A U176G", "reverse-splicing fitness": 0.00223}
{"variant": "C82G A111C A120U A145U C150U C169G", "reverse-splicing fitness": 0.00403}
{"variant": "C82G A111C A120U A145U C150U C169G U176A", "reverse-splicing fitness": 0.00347}
{"variant": "C82G A111C A120U A145U C150U C169G U176C", "reverse-splicing fitness": 0.00346}
{"variant": "C82G A111C A120U A145U C150U C169G U176G", "reverse-splicing fitness": 0.00273}
{"variant": "C82G A111C A120U A145U C150U C169U", "reverse-splicing fitness": 0.00397}
{"variant": "C82G A111C A120U A145U C150U C169U U176A", "reverse-splicing fitness": 0.0031}
{"variant": "C82G A111C A120U A145U C150U C169U U176C", "reverse-splicing fitness": 0.00311}
{"variant": "C82G A111C A120U A145U C150U C169U U176G", "reverse-splicing fitness": 0.00235}
{"variant": "C82G A111C A120U A145U C150U U176A", "reverse-splicing fitness": 0.00941}
{"variant": "C82G A111C A120U A145U C150U U176C", "reverse-splicing fitness": 0.013}
{"variant": "C82G A111C A120U A145U C150U U176G", "reverse-splicing fitness": 0.00386}
{"variant": "C82G A111C A120U A145U C169A", "reverse-splicing fitness": 0.00231}
{"variant": "C82G A111C A120U A145U C169A U176A", "reverse-splicing fitness": 0.00261}
{"variant": "C82G A111C A120U A145U C169A U176C", "reverse-splicing fitness": 0.00242}
{"variant": "C82G A111C A120U A145U C169A U176G", "reverse-splicing fitness": 0.00195}
{"variant": "C82G A111C A120U A145U C169G", "reverse-splicing fitness": 0.00373}
{"variant": "C82G A111C A120U A145U C169G U176A", "reverse-splicing fitness": 0.00269}
{"variant": "C82G A111C A120U A145U C169G U176C", "reverse-splicing fitness": 0.00239}
{"variant": "C82G A111C A120U A145U C169G U176G", "reverse-splicing fitness": 0.00162}
